From US20020081638
“And” between values parts separate entries of the source, which are not always exact repeats. Identical values can stand only once.

Columns and labels:
[1] = target: free histones (mixture of H1, H3, H2B, H2A and H4; Boehringer Mannheim)
[2] = target: N-terminus of rat macro-H2A peptide
[3] = target: N-terminus of human CENP-A peptide
[4] = target: wild-type N-terminus of human histone H3 peptide (aa 1-20)
[5] = target: mutant H3 (K9L) N-terminal peptide

B1: (myc)3-Nchromo (aa 3-118), C-terminally truncated human SUV39H1 (protein)
chain: ENLKGCSVCCKSSWNQLQDLCRLAKLSCPALGISKRNLYDFEVEYLCDYKKIREQEYYLVKWRGYPDSESTWEPRQNLKCVRILKQFHKDLERELLRRHHRSKTPRHLDPSLANYL
[1]
  in vitro HMTase assay, fluorography of 14C-methyl label: no signals were detected with extracts from a HeLa cell line that expresses only the N-terminal third of SUV39H1 (aa 3-118)

B2: GST-Suv39h1(82-412), murine (protein)
chain: CIRVLKQFHKDLERELVRRHRRSKPPRHLDPNLANYLVQKAKQRRALQRWEQELNAKRSHLGRITVENEVDLDGPPRSFVYINEYRVGEGITLNQVAVGCECQDCLLAPTGGCCPGASLHKFAYNDQGQVRLKAGQPIYECNSRCCCGYDCPNRVVQKGIRYDLCIFRTNDGRGWGVRTLEKIRKNSFVMEYVGEIITSEEAERRGQIYDRQGATYLFDLDYVEDVYTVDAAYYGNISHFVNHSCDPNLQVYNVFIDNLDERLPRIAFFATRTIWAGEELTFDYNMQVDPVDMESTRMDSNFGLAGLPGSPKKRVRIECKCGTTACRKYLF
Insulin (Sigma)
  in vitro methylation of peptides, SDS-PAGE and fluorography: no signals were detected with the CENP-A or macroH2A peptides, or with insulin
Histone H2B
  in vitro methylation of individual histones, fluorography: no signals are detected with H2A, H2B or H4
Histone H2A
  in vitro methylation of individual histones, fluorography: no signals are detected with H2A, H2B or H4
[2]
  in vitro methylation of peptides, SDS-PAGE and fluorography: no signals were detected with the CENP-A or macroH2A peptides, or with insulin
[1]
  in vitro HMTase assay, fluorography of 14C-methyl label: A purified GST-product comprising aa 82-412 maintained HMTase activity (although at a reduced level as compared to transfected SUV39H1)
[3]
  in vitro methylation of peptides, SDS-PAGE and fluorography: no signals were detected with the CENP-A or macroH2A peptides, or with insulin
Histone H1
  in vitro methylation of individual histones, fluorography: A weak signal is present if H1 was used as the sole substrate
[4]
  3H-incorporation of individual amino acids by microsequencing of the in vitro methylated peptide: The results confirmed selective transfer of methyl-label to lysine 9
  in vitro methylation of peptides, SDS-PAGE and fluorography: These in vitro assays revealed selective methylation of the wild-type H3 peptide
[5]
  in vitro methylation of peptides, SDS-PAGE and fluorography: the mutated H3 (K9L) peptide was not a substrate
Histone H3
  in vitro methylation of individual histones, fluorography: H3 is specifically methylated by GST-Suv39h1(82-412)
Histone H4
  in vitro methylation of individual histones, fluorography: no signals are detected with H2A, H2B or H4

B3: GST-Suv39h1(7-221), murine (protein)
chain: GCSVCCKSSWNQLQDLCRLAKLSCPALGVSKKNLYDFEVEYLCDYKKIREQEYYLVKWRGYPDSENTWEPRQNLKCIRVLKQFHKDLERELVRRHRRSKPPRHLDPNLANYLVQKAKQRRALQRWEQELNAKRSHLGRITVENEVDLDGPPRSFVYINEYRVGEGITLNQVAVGCECQDCLLAPTGGCCPGASLHKFAYNDQGQVRLKAGQPIYE
[1]
  in vitro HMTase assay, fluorography of 14C-methyl label: a purified GST-product comprising aa 7-221 proved negative, even at higher protein concentrations

B4: GST-CLR4(127-490), S. pombe (protein)
chain: KQSTALTTNDTSIILDDSLHTNSKKLGKTRNEVKEESQKRELVSNSIKEATSPKTSSILTKPRNPSKLDSYTHLSFYEKRELFRKKLREIEGPEVTLVNEVDDEPCPSLDFQFISQYRLTQGVIPPDPNFQSGCNCSSLGGCDLNNPSRCECLDDLDEPTHFAYDAQGRVRADTGAVIYECNSFCSCSMECPNRVVQRGRTLPLEIFKTKEKGWGVRSLRFAPAGTFITCYLGEVITSAEAAKRDKNYDDDGITYLFDLDMFDDASEYTVDAQNYGDVSRFFNHSCSPNIAIYSAVRNHGFRTIYDLAFFAIKDIQPLEELTFDYAGAKDFSPVQSQKSQQNRISKLRRQCKCGSANCRGWLFG
[1]
  in vitro HMTase assay with free histones, activity against recombinant SUV39H1 product: 3 fold and 5 fold

B5: (myc)3-SUV39H1 (aa 3-412), triple myc-tagged full-length human SUV39H1 (protein)
chain: ENLKGCSVCCKSSWNQLQDLCRLAKLSCPALGISKRNLYDFEVEYLCDYKKIREQEYYLVKWRGYPDSESTWEPRQNLKCVRILKQFHKDLERELLRRHHRSKTPRHLDPSLANYLVQKAKQRRALRRWEQELNAKRSHLGRITVENEVDLDGPPRAFVYINEYRVGEGITLNQVAVGCECQDCLWAPTGGCCPGASLHKFAYNDQGQVRLRAGLPIYECNSRCRCGYDCPNRVVQKGIRYDLCIFRTDDGRGWGVRTLEKIRKNSFVMEYVGEIITSEEAERRGQIYDRQGATYLFDLDYVEDVYTVDAAYYGNISHFVNHSCDPNLQVYNVFIDNLDERLPRIAFFATRTIRAGEELTFDYNMQVDPVDMESTRMDSNFGLAGLPGSPKKRVRIECKCGTESCRKYLF
Histone H3
  in vitro HMTase assay, fluorography of 14C-methyl label: indicating selective transfer of the methyl-label to H3
